Test results from patent US20120058906A1 (published 2012).
Numbering of substitutions follows the chain as printed. Each block holds one binder with its values, some of them ahead of it.

Assays:
[1] = molecular target: T1, rHuman Notch-1/Fc Chimera, CF (R&D Systems Cat#3647-TK) (human, UniProt P46531 19-526); assay: MSD ECL titration, Fab 2383 nM, blank 344
T1 construct: Bought Fc chimera; Fc part of the bought chimera not given

[2] = molecular target: T2, rHuman CD44/Fc Chimera, CF (R&D Systems Cat#3660-CD) (human, UniProt P16070 21-220); assay: MSD ECL titration, Fab 2383 nM, blank 344
T2 construct: Bought Fc chimera; Fc part of the bought chimera not given

[3] = molecular target: T3, rHuman ErbB2/Fc Chimera, CF (R&D Systems Cat#1129-ER) (human, UniProt P04626 23-652); assay: MSD ECL titration, Fab 2383 nM, blank 344
T3 construct: Bought Fc chimera; also called HER2/neu; Fc part of the bought chimera not given

[4] = molecular target: T4, rHuman IGF-1 sR (insulin-like growth factor-1 soluble receptor), CF (R&D Systems Cat#391-GR) (human, UniProt P08069 31-932); assay: MSD ECL titration, Fab 2383 nM, blank 344
T4 construct: Bought soluble receptor; also called IGF-R1

[5] = molecular target: T5, rHuman P-Cadherin/Fc Chimera, CF (R&D Systems Cat#861-PC) (human, UniProt P22223 108-654); assay: ECL (MSD multi-spot), antigen on plate, Fab 0.4 nM
T5 construct: Bought Fc chimera; also called CDH3; not shown: Fc of the bought chimera

[6] = molecular target: T6, rHuman ErbB2/Fc Chimera, CF (R&D Systems Cat#1129-ER) (human, UniProt P04626 23-652); assay: ECL (MSD multi-spot), antigen on plate, Fab 0.4 nM
T6 construct: Bought Fc chimera; also called HER2/neu; not shown: Fc of the bought chimera

[7] = molecular target: T7, rHuman EGF R/Fc Chimera, CF (R&D Systems Cat#344-ER) (human, UniProt P00533 25-645); assay: ECL (MSD multi-spot), antigen on plate, Fab 0.4 nM
T7 construct: Bought Fc chimera; also called ErbB-1; not shown: Fc of the bought chimera

[8] = molecular target: T8, Recombinant Human DLL4 (R&D Systems Cat#1506-D4/CF) (human, UniProt Q9NR61 27-524); assay: ECL (MSD multi-spot), antigen on plate, Fab 0.4 nM
T8 construct: Bought recombinant protein; also called delta-like protein 4

[9] = molecular target: T9, rHuman CD44/Fc Chimera, CF (R&D Systems Cat#3660-CD) (human, UniProt P16070 21-220); assay: ECL (MSD multi-spot), antigen on plate, Fab 0.4 nM
T9 construct: Bought Fc chimera; not shown: Fc of the bought chimera

[10] = molecular target: T10, rHuman HGF R/c-MET/Fc Chimera, CF (R&D Systems Cat#358-MT/CF) (human, UniProt P08581 25-932); assay: ECL (MSD multi-spot), antigen on plate, Fab 0.4 nM
T10 construct: Bought Fc chimera; also called HGF R/Fc; not shown: Fc of the bought chimera

[11] = molecular target: T11, rHuman Erythropoietin R/Fc Chimera, CF (R&D Systems Cat#963-ER) (human, UniProt P19235 25-250); assay: ECL (MSD multi-spot), antigen on plate, Fab 0.4 nM
T11 construct: Bought Fc chimera; also called EPO R/Fc; Epo R; not shown: Fc of the bought chimera
T11 sequence: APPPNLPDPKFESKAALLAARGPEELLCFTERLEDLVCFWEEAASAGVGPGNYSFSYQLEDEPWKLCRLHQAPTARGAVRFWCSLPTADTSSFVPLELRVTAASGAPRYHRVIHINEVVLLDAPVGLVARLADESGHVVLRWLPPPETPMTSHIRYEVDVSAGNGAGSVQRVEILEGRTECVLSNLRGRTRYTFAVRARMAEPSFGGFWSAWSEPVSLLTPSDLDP

[12] = molecular target: T5, rHuman P-Cadherin/Fc Chimera, CF (R&D …); assay: ECL (MSD multi-spot), antigen on plate, Fab 2 nM
[13] = molecular target: T6, rHuman ErbB2/Fc Chimera, CF (R&D …); assay: ECL (MSD multi-spot), antigen on plate, Fab 2 nM
[14] = molecular target: T7, rHuman EGF R/Fc Chimera, CF (R&D …); assay: ECL (MSD multi-spot), antigen on plate, Fab 2 nM
[15] = molecular target: T12, rHuman IGF-1 sR (insulin-like growth factor-1 soluble receptor), CF (R&D Systems Cat#391-GR) (human, UniProt P08069 31-932); assay: ECL (MSD multi-spot), antigen on plate, Fab 2 nM
T12 construct: Bought soluble receptor; also called IGF-R1

[16] = molecular target: T8, Recombinant Human DLL4 (R&D Systems …); assay: ECL (MSD multi-spot), antigen on plate, Fab 2 nM
[17] = molecular target: T13, rHuman Notch-1/Fc Chimera, CF (R&D Systems Cat#3647-TK) (human, UniProt P46531 19-526); assay: ECL (MSD multi-spot), antigen on plate, Fab 2 nM
T13 construct: Bought Fc chimera; not shown: Fc of the bought chimera

[18] = molecular target: T9, rHuman CD44/Fc Chimera, CF (R&D Systems …); assay: ECL (MSD multi-spot), antigen on plate, Fab 2 nM
[19] = molecular target: T10, rHuman HGF R/c-MET/Fc Chimera, CF (R&D …); assay: ECL (MSD multi-spot), antigen on plate, Fab 2 nM
[20] = molecular target: T11, rHuman Erythropoietin R/Fc Chimera, CF …; assay: ECL (MSD multi-spot), antigen on plate, Fab 2 nM
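Also: blank spot per well as comparator with Hit at signal to blank ratio of 4 or more.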

ECL signal [1]: 690
ECL signal [2]: 559
ECL signal [3]: 454
ECL signal [4]: 527
B1: Fab VH1-46_IGHD6-6*01_IGHJ1*01 & L6_IGKJ1*01 (Fab, V domains shown)
VH: QVQLVQSGAEVKKPGASVKVSCKASGYTFTSYYMHWVRQAPGQGLEWMGIINPSGGSTSYAQKFQGRVTMTRDTSTSTVYMELSSLRSEDTAVYYCAREEYSSSSAEYFQHWGQGTLVTVSS
VL: not shown
notes: Expressed in E. coli as Fab: heavy chain with CH1 plus Flag and His tags from Plasmid A, kappa light chain constant region from Plasmid C; also called Fab No. 1

ECL signal [5]: 111 ECL signal
ECL signal [6]: 203 ECL signal
ECL signal [7]: 173 ECL signal
ECL signal [8]: 1040 ECL signal
ECL signal [9]: 176 ECL signal
ECL signal [10]: 120 ECL signal
ECL signal [11]: 224 ECL signal
ECL signal [12]: 395 ECL signal
ECL signal [13]: 138 ECL signal
ECL signal [14]: 171 ECL signal
ECL signal [15]: 296 ECL signal
ECL signal [16]: 11400 ECL signal
ECL signal [17]: 274 ECL signal
ECL signal [18]: 209 ECL signal
ECL signal [19]: 207 ECL signal
ECL signal [20]: 294 ECL signal
B2: Fab VH1-46_IGHD6-6*01_IGHJ1*01_S102A_S103P_S104F & L6_IGKJ1*01_S30N (Fab, V domains shown)
VH: B1 VH with S102A, S103P, S104F
VL: EIVLTQSPATLSLSPGERATLSCRASQSVNSYLAWYQQKPGQAPRLLIYDASNRATGIPARFSGSGSGTDFTLTISSLEPEDFAVYYCQQRSNWPPWTFGQGTKVEIKR
notes: Fab
